Measured values published in patent publication US20130059793A1 (University of Texas, published 2013).
Ends that are not written are not given here.

Tests used:
VEGF = biological target: T1, VEGF (UniProt P15692-4 27-191, limits assumed); assay: phage binding assay on proteins coated onto microtiter wells
T1 construct: Negative control protein; also called negative control protein VEGF

[1] = biological target: T2, bovine serum albumin (BSA) (bovine, UniProt P02769 25-607); assay: phage binding assay on immobilized proteins
T2 construct: Negative control protein
T2 sequence (P02769 25-607 limits assumed): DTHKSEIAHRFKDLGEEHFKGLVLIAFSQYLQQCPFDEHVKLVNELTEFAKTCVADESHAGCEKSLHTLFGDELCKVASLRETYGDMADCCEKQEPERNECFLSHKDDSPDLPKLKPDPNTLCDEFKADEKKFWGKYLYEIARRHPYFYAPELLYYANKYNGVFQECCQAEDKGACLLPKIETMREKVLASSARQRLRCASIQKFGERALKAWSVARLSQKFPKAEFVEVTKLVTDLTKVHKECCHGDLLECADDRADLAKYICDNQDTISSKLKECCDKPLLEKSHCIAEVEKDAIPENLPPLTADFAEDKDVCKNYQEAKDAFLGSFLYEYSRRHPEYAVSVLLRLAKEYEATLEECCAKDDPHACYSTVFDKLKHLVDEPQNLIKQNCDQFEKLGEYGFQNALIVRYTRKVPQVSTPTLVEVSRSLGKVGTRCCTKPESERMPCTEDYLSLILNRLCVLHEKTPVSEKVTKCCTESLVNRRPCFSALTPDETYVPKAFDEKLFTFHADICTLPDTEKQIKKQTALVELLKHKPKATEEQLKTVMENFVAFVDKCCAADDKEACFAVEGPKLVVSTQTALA

[2] = biological target: T3, transforming growth factor alpha (TGF-α) (UniProt P01135 40-89); assay: phage binding assay on proteins coated onto microtiter wells
T3 construct: Bought; also called Tumor Growth Factor alpha

[3] = biological target: T4, epidermal growth factor (EGF) (UniProt P01133 971-1023); assay: as above
T4 construct: Bought
T4 sequence (P01133 971-1023 limits assumed): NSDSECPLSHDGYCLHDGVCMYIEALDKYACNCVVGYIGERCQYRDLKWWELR

T1 sequence (P15692 other isoform, or with tags, fused parts or gaps limits assumed): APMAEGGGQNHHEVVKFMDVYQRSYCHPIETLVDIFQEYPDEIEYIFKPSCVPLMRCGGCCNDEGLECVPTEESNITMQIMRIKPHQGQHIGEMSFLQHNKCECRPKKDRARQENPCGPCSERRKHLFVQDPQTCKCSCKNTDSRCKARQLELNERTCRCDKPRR

B1: CVRAC-displaying phage (peptide)
peptide: CVRAC
modifications: not fully specified (bridges); also: cyclic, ring type not given here, displayed on phage
notes: the phage coat protein that carries the insert is not described; also called CVRAC-phage; phage displaying the cyclic peptide CVRAC
B1: no binding (VEGF); no binding [1].

B2: CVAAC-displaying phage (peptide)
peptide: CVAAC
modifications: not fully specified (bridges); also: cyclic, ring type not given here, displayed on phage
notes: coat protein fusion not described; also called CVAAC-phage; alanine scanning control
B2: no binding [2]; no binding [3].
